Assays:
[1] = molecular target: SARS-CoV-2 RBD wild type (SARS-CoV-2 (wild type)) (UniProt P0DTC2); assay: flow cytometry bead binding; details: 5'-hexynyl clicked to C-terminal azide of peptide LGKGDFR
pseudotyped SARS-CoV-2 = format: cell-based, SARS-CoV-2 (human hACE2-293T cells)
RBD-hACE2 binding = RBD-hACE2 binding (Severe acute respiratory syndrome coronavirus 2, UniProt P0DTC2); details: ELISA, 3 μM, n = 3 independent replicates

Row | Substance | binding signal (RBD-binding fraction relative to R7-02) [1] | percentage of GFP-expressing infected cells over the total hACE2-293T cells (pseudotyped SARS-CoV-2) [%] | inhibition of RBD-hACE2 interaction (RBD-hACE2 binding) [%]
1 | GGAAGAGATGGCGACCACACCAAATCTGAGTCTACCCCATGAAGGAGCTGATCCTGATGG [R7-03 hybrid ligand (LGKGDFR-DNA)] | 0.125 | – | –
2 | GGAAGAGATGGCGACCTCCACAACCGCTGATCGACGCAGATCTTGTGGGTAGCTGATCCTGATGG [R7-01 hybrid ligand (LGKGDFR-DNA)] | 0.2 | – | –
3 | LGKGDFR [LGKGDFR peptide] | – | 22.0 | 11.69

Reference: paper PMC9604513, “De novo selected hACE2 mimics that integrate hotspot peptides with aptameric scaffolds for binding tolerance of SARS-CoV-2 variants” (Science Advances, 2022)
